Laboratory results reported in patent US20260167710A1.

Tests used:
[1] = target: ST2-his (human) (UniProt Q01638); assay: BLI (Octet RED384), ST2-his on anti-his sensors, IL-33 100 nM, steady state fit, average of n=2; not at equilibrium, for comparison only
[2] = target: ST2-his (human) (UniProt Q01638); assay: BLI (Octet RED384), ST2-his on anti-his sensors, IL-33 pre-mixed with the anti IL-33 control antibody (the complex binds ST2), steady state fit, average of n=2
[3] = target: ST2-his (human) (UniProt Q01638); assay: BLI (Octet RED384), ST2-his on anti-his sensors, IL-33 pre-mixed with ten-fold excess of 22A06-458 (the complex binds ST2), steady state fit, average of n=2

ST2-his (human), sequence (Q01638 other isoform, or with tags, fused parts or gaps limits assumed): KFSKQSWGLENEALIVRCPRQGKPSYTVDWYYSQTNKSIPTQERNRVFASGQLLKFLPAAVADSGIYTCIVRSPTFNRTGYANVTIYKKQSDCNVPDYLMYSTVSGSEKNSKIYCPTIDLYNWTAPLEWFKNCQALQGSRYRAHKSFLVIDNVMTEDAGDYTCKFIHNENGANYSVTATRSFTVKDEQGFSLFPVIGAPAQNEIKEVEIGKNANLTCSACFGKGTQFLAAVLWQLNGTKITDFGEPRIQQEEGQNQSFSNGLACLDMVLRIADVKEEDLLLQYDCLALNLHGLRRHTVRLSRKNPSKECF

Kd [1]: 7.2 nM
Kd [2]: 2.4 nM
Kd [3]: 11.5 nM
B1: human IL-33 (ligand, not shown: small tags and cut ends)
chain: ITGISPITEYLASLSTYNDQSITFALEDESYEIYVEDLKKDEKKDKVLLSYYESQHPSNESGDGVDGKMLMVTLSPTKDFWLHANNKEHSVELHKCEKPLPDQAFFVLHNMHSNCVSFECKTDPGVFIGVKDNHLALIKVDSSENLCTENILFKLSET
modifications: Biotinylated in Example 2; the site is not stated.
